According to doi:10.1101/2024.08.01.606155 (bioRxiv, 2024):

Target: the molecule itself
Assay: SEC

B1: PMK3 (p38 MAPK of C. elegans), full length (enzyme, UniProt O44514 1-474, looked up)
chain: MASVPSSSSLPVSHVRRHEDVSTPSAPPTKRSNNQSQPPESYEPNTWLQQQREQEQQKKLAAENIKKQSIEATGNNEMVGEEEEDILSKPCGPHKRRFQFVMIRNITFAIPEGYDVEPNSIEYLGGGSFGNVIKTSAVCRDGLRRYVAIKKMREPFFDPHHARRIFRETKLLQLMRHDNIICALDIYTPDEENDFRDVYVVTEFAGRSLYQILKQQRDYGRRVLTDEHIKFIIYQIIRALKYIHSANIIHRDLKPGNLALTDDSDLMILDFGLARSLEKKDTSLTQYVQTRWYRSPEVIYWKIDSYTNLADMWSLGCIAAELLTGEPLFPGDEPNAQYQRITQLCGSPDEELLTKIENDNSSAIKAVIQSYTTHKRRNFRDVFSAHNPSEDFIDLLEKLLVLDPEKRITVEEAIQHPYLAEFSLPEDEPRADHIFDLDDSQARTRFEWRDAVWKEIMNYKRLSSSPLIPGEADR
  binding result: binds
